Each block holds one binder with its values, some of them ahead of it.
Biological target: human LAG3 expressed on cells (human) (UniProt P18627)
Experiment: cell-based or functional assay

Chain of human LAG3 expressed on cells (human) (P18627 23-525): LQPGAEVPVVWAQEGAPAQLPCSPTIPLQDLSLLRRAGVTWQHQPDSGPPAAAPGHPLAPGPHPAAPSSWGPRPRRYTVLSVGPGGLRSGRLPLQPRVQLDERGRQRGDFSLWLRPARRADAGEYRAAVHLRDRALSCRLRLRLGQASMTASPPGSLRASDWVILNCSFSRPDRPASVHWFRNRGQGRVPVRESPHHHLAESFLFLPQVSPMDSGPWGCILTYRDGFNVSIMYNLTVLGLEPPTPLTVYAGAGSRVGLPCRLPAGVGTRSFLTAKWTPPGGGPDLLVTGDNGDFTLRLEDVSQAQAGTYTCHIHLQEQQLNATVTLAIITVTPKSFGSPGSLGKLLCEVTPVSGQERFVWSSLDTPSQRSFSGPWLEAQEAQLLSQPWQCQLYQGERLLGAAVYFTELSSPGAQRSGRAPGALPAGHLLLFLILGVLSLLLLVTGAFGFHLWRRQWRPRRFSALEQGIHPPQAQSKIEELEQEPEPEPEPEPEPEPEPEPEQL

B1: sdAb No. 2015 (VHH, part only)
VHH: QLQLVESGGGLAQTGGSLRLSCAAAGFTFDDTATGWFRQAPGKNREGVACISSSDGRIHYIDSAKGRFTISKDNAKKTVYLQMDSLKPEDTAVYYCAAARKGSTDCQGAIWGSWGQGTQVIVSS
modifications: possible Fc not stated
IL-2, % of BMS, at 0.005080526 ug/mL: 0.0179% | IL-2, % of BMS, at 0.015241579 ug/mL: 1.06% | IL-2, % of BMS, at 0.045724737 ug/mL: 0.925% | IL-2, % of BMS, at 0.137174211 ug/mL: 1.92% | IL-2, % of BMS, at 0.411522634 ug/mL: 1.8% | IL-2, % of BMS, at 1.234567901 ug/mL: 10.6% | IL-2, % of BMS, at 3.703703704 ug/mL: 19.1% | IL-2, % of BMS, at 11.11111111 ug/mL: 33.6% | IL-2, % of BMS, at 33.33333333 ug/mL: 39.8% | IL-2, % of BMS, at 100 ug/mL: 46.6%

B5: sdAb fusion 25-17-1 (Fc fusion, not shown: a dimerising Fc or GST)
chain: QLQLVESGGGLVQAGGSLRLSCAASGSIESFSFMGWYRQAPGKQRELVAGFTGAASLSFSTYTDAVKGRFTISRDNAKNTVYLQMNSLKPEDTAVYFCNVDPWSQSWPGRYWGQGTQVTVSSGGGGSQLQLVESGGGLVQPGGSLRLSCAASGLTLDGYAIGWFRQAPGKEREGLACISGSDGSTHYLDSVKGRFTISRDNGKNTMALQMNSLQFGDTAIYYCAARRGSCSGSWTYWGQGTQVTVSS
Efficacy (Normalized to BMS): 106% | IL-2, % of BMS, at 0.001016105 ug/mL: 0.0133% | IL-2, % of BMS, at 0.003048316 ug/mL: 4.1% | IL-2, % of BMS, at 0.009144947 ug/mL: -0.836% | IL-2, % of BMS, at 0.027434842 ug/mL: -2.73% | IL-2, % of BMS, at 0.082304527 ug/mL: -5.85% | IL-2, % of BMS, at 0.24691358 ug/mL: 6.88% | IL-2, % of BMS, at 0.740740741 ug/mL: 34% | IL-2, % of BMS, at 2.222222222 ug/mL: 82.7% | IL-2, % of BMS, at 6.666666667 ug/mL: 89.2% | IL-2, % of BMS, at 20 ug/mL: 110% | Jurkat T-hLAG3 Assay EC50: 10.9 nM

Continued, values first:

Efficacy (Normalized to BMS): 102% | IL-2, % of BMS, at 0.001016105 ug/mL: -0.00048% | IL-2, % of BMS, at 0.003048316 ug/mL: -2.52% | IL-2, % of BMS, at 0.009144947 ug/mL: -0.621% | IL-2, % of BMS, at 0.027434842 ug/mL: 12% | IL-2, % of BMS, at 0.082304527 ug/mL: -7.68% | IL-2, % of BMS, at 0.24691358 ug/mL: -2.21% | IL-2, % of BMS, at 0.740740741 ug/mL: 16.4% | IL-2, % of BMS, at 2.222222222 ug/mL: 77.7% | IL-2, % of BMS, at 6.666666667 ug/mL: 85.1% | IL-2, % of BMS, at 20 ug/mL: 111% | Jurkat T-hLAG3 Assay EC50: 14 nM
B2: sdAb fusion 25-17-2 (Fc fusion, not shown: a dimerising Fc or GST)
chain: QLQLVESGGGLVQAGGSLRLSCAASGSIESFSFMGWYRQAPGKQRELVAGFTGAASLSFSTYTDAVKGRFTISRDNAKNTVYLQMNSLKPEDTAVYFCNVDPWSQSWPGRYWGQGTQVTVSSGGGGSGGGGSQLQLVESGGGLVQPGGSLRLSCAASGLTLDGYAIGWFRQAPGKEREGLACISGSDGSTHYLDSVKGRFTISRDNGKNTMALQMNSLQFGDTAIYYCAARRGSCSGSWTYWGQGTQVTVSSEPKSCDKTHTCPPCPAPELLG

Efficacy (Normalized to BMS): 102% | IL-2, % of BMS, at 0.001016105 ug/mL: 0.000639% | IL-2, % of BMS, at 0.003048316 ug/mL: 5.71% | IL-2, % of BMS, at 0.009144947 ug/mL: 7.44% | IL-2, % of BMS, at 0.027434842 ug/mL: 8.91% | IL-2, % of BMS, at 0.082304527 ug/mL: 11.7% | IL-2, % of BMS, at 0.24691358 ug/mL: 12.1% | IL-2, % of BMS, at 0.740740741 ug/mL: 28.9% | IL-2, % of BMS, at 2.222222222 ug/mL: 62.8% | IL-2, % of BMS, at 6.666666667 ug/mL: 93.2% | IL-2, % of BMS, at 20 ug/mL: 103% | Jurkat T-hLAG3 Assay EC50: 18.4 nM
B3: sdAb fusion 25-17-3 (Fc fusion, not shown: a dimerising Fc or GST)
chain: QLQLVESGGGLVQAGGSLRLSCAASGSIESFSFMGWYRQAPGKQRELVAGFTGAASLSFSTYTDAVKGRFTISRDNAKNTVYLQMNSLKPEDTAVYFCNVDPWSQSWPGRYWGQGTQVTVSSGGGGSGGGGSGGGGSQLQLVESGGGLVQPGGSLRLSCAASGLTLDGYAIGWFRQAPGKEREGLACISGSDGSTHYLDSVKGRFTISRDNGKNTMALQMNSLQFGDTAIYYCAARRGSCSGSWTYWGQGTQVTVSSEPKSCDKTHTCPPCPAPELLG

Efficacy (Normalized to BMS): 114% | IL-2, % of BMS, at 0.001016105 ug/mL: 0.000292% | IL-2, % of BMS, at 0.003048316 ug/mL: 10.8% | IL-2, % of BMS, at 0.009144947 ug/mL: 7.32% | IL-2, % of BMS, at 0.027434842 ug/mL: 30.4% | IL-2, % of BMS, at 0.082304527 ug/mL: 10.4% | IL-2, % of BMS, at 0.24691358 ug/mL: 35.6% | IL-2, % of BMS, at 0.740740741 ug/mL: 59.7% | IL-2, % of BMS, at 2.222222222 ug/mL: 97.5% | IL-2, % of BMS, at 6.666666667 ug/mL: 112% | IL-2, % of BMS, at 20 ug/mL: 117% | Jurkat T-hLAG3 Assay EC50: 8.01 nM
B4: sdAb fusion 25-2015-1 (Fc fusion, not shown: a dimerising Fc or GST)
chain: QLQLVESGGGLVQAGGSLRLSCAASGSIESFSFMGWYRQAPGKQRELVAGFTGAASLSFSTYTDAVKGRFTISRDNAKNTVYLQMNSLKPEDTAVYFCNVDPWSQSWPGRYWGQGTQVTVSSGGGGSQLQLVESGGGLAQTGGSLRLSCAAAGFTFDDTATGWFRQAPGKNREGVACISSSDGRIHYIDSAKGRFTISKDNAKKTVYLQMDSLKPEDTAVYYCAAARKGSTDCQGAIWGSWGQGTQVIVSSEPKSCDKTHTCPPCPAPELLG
